# T1: PCLO, Q9Y6V0
# T1 sequence (Q9Y6V0 4491-4600, limits assumed, looked up): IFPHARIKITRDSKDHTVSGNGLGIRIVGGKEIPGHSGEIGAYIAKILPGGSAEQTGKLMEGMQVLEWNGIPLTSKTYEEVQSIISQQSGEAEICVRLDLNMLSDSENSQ
# T2: PTPN13_1, Q12923
# T2 sequence (Q12923 1088-1188, limits assumed, looked up): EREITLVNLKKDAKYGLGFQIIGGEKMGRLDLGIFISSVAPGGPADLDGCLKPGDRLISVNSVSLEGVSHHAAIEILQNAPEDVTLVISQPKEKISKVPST
# T3: MPP7, Q5T2T1
# T3 sequence (Q5T2T1 134-230, limits assumed, looked up): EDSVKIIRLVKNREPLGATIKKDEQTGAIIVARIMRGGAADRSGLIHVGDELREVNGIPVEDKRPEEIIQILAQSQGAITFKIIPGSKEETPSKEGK
# T4: GRIP1_7, Q9Y3R0
# T4 sequence (Q9Y3R0 999-1096, limits assumed, looked up): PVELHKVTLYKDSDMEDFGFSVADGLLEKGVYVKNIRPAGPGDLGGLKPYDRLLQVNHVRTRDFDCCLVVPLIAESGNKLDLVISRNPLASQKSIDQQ
# T5: SYNJ2BP, P57105
# T5 sequence (P57105 8-110, limits assumed, looked up): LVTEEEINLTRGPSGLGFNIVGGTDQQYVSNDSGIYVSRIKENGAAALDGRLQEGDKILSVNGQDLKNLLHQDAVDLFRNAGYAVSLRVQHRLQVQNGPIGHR
# T6: PDZRN3_1, Q9UPQ7
# T6 sequence (Q9UPQ7 244-349, limits assumed, looked up): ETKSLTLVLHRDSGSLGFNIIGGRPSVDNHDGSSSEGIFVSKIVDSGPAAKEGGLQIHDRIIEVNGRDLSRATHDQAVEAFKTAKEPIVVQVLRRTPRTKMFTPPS
# T7: ARHGAP21, Q5T5U3
# T7 sequence (Q5T5U3 45-169, limits assumed, looked up): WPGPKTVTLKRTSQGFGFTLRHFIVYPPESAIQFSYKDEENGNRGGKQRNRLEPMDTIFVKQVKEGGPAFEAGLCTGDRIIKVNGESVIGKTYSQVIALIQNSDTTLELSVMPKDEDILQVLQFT
# T8: GRIP1_5, Q9Y3R0
# T8 sequence (Q9Y3R0 568-668, limits assumed, looked up): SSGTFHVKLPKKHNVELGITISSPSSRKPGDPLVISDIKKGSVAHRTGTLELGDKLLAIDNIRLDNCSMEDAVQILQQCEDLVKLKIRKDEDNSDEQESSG
# T9: MPP6, Q9NZW5
# T9 sequence (Q9NZW5 125-219, limits assumed, looked up): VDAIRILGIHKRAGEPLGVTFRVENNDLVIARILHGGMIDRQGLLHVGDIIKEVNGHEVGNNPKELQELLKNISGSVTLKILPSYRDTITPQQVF
# T10: LIN7A, O14910
# T10 sequence (O14910 103-200, limits assumed, looked up): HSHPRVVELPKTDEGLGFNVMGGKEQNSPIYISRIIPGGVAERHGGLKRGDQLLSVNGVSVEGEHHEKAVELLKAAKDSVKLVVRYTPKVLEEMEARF
# T11: FRMPD1, Q5SYB0
# T11 sequence (Q5SYB0 52-145, limits assumed, looked up): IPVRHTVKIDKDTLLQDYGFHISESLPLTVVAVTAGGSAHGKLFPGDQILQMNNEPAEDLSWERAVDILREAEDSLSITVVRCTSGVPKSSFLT
# Experiments:
# Assay in all cases: holdup assay
# Set-up in all cases: key: below the threshold = too weak to quantify, mostly under pKd 3.1 to 4
# Conditions in all cases: plain residues with an end cap or a label only (N-terminal biotin on a linker: ado-ado)
# PCLO, Q9Y6V0 = target: T1, PCLO, Q9Y6V0
# MAST2, Q6P0Q8 = target: MAST2, Q6P0Q8
# Sequence of MAST2, Q6P0Q8 (Q6P0Q8 1099-1202): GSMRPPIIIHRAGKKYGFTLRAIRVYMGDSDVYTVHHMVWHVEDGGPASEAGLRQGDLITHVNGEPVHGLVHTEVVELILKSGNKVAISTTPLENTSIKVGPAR
# GRASP, Q7Z6J2 = target: GRASP, Q7Z6J2
# Sequence of GRASP, Q7Z6J2 (Q7Z6J2 96-193): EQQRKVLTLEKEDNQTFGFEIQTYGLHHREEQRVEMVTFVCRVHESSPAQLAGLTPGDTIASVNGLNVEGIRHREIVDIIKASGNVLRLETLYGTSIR
# FRMPD4, Q14CM0 = target: FRMPD4, Q14CM0
# Sequence of FRMPD4, Q14CM0 (Q14CM0 67-160): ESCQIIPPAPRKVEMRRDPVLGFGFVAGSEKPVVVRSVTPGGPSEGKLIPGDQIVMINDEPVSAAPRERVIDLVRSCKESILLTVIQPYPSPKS
# PTPN13_1, Q12923 = target: T2, PTPN13_1, Q12923
# MPP7, Q5T2T1 = target: T3, MPP7, Q5T2T1
# GRIP1_7, Q9Y3R0 = target: T4, GRIP1_7, Q9Y3R0
# MAGI2_3, Q86UL8 = target: MAGI2_3, Q86UL8
# Sequence of MAGI2_3, Q86UL8 (Q86UL8 600-682): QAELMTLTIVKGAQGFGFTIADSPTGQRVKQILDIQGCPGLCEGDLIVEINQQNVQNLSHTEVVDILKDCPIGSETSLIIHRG
# HTRA1, Q92743 = target: HTRA1, Q92743
# Sequence of HTRA1, Q92743 (Q92743 360-477): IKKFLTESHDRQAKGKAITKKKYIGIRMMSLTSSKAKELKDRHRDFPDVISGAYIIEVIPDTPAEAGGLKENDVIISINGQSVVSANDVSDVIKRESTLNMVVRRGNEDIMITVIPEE
# MAGI2_5, Q86UL8 = target: MAGI2_5, Q86UL8
# Sequence of MAGI2_5, Q86UL8 (Q86UL8 915-1017): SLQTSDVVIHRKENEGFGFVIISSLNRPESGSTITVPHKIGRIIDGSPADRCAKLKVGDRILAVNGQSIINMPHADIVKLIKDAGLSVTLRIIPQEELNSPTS
# SYNJ2BP, P57105 = target: T5, SYNJ2BP, P57105
# GRID2IP_1, A4D2P6 = target: GRID2IP_1, A4D2P6
# Sequence of GRID2IP_1, A4D2P6 (A4D2P6 1-87): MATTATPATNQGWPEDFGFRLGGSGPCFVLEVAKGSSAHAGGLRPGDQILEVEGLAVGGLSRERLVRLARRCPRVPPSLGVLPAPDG
# Inadl_3, Q8NI35 = target: Inadl_3, Q8NI35
# Sequence of Inadl_3, Q8NI35 (Q8NI35 359-469): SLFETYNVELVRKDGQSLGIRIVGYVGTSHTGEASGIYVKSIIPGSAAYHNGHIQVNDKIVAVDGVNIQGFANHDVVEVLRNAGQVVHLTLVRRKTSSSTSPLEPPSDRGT
# PDZRN3_1, Q9UPQ7 = target: T6, PDZRN3_1, Q9UPQ7
# ARHGAP21, Q5T5U3 = target: T7, ARHGAP21, Q5T5U3
# NHERF4_2, Q86UT5 = target: NHERF4_2, Q86UT5
# Sequence of NHERF4_2, Q86UT5 (Q86UT5 220-308): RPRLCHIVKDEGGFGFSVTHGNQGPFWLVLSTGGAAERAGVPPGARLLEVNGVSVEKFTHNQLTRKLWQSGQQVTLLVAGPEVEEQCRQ
# MAGI1_2, Q96QZ7 = target: MAGI1_2, Q96QZ7
# Sequence of MAGI1_2, Q96QZ7 (Q96QZ7 456-580): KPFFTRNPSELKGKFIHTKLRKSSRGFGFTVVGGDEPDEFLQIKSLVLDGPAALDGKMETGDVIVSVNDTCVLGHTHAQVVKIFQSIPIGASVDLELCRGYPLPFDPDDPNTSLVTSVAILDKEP
# Inadl_4, Q8NI35 = target: Inadl_4, Q8NI35
# Sequence of Inadl_4, Q8NI35 (Q8NI35 547-651): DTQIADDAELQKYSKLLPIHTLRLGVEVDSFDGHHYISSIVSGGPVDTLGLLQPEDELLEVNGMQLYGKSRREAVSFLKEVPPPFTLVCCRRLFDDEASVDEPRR
# GRIP2_6, Q9C0E4 = target: GRIP2_6, Q9C0E4
# Sequence of GRIP2_6, Q9C0E4 (Q9C0E4 648-740): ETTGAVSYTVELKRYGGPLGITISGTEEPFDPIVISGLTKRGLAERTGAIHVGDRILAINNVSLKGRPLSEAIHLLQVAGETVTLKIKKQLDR
# GRIP2_3, Q9C0E4 = target: GRIP2_3, Q9C0E4
# Sequence of GRIP2_3, Q9C0E4 (Q9C0E4 238-339): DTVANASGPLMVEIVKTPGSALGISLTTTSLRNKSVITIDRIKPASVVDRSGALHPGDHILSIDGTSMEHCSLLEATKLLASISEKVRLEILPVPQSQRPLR
# SCRIB_2, Q14160 = target: SCRIB_2, Q14160
# Sequence of SCRIB_2, Q14160 (Q14160 857-960): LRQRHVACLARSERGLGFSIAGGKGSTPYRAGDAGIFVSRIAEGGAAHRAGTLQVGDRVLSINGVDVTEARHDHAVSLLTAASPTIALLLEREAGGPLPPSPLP
# GRIP1_5, Q9Y3R0 = target: T8, GRIP1_5, Q9Y3R0
# MPP6, Q9NZW5 = target: T9, MPP6, Q9NZW5
# LIN7A, O14910 = target: T10, LIN7A, O14910
# FRMPD1, Q5SYB0 = target: T11, FRMPD1, Q5SYB0
# DLG4_1, P78352 = target: DLG4_1, P78352
# Sequence of DLG4_1, P78352 (P78352 62-152): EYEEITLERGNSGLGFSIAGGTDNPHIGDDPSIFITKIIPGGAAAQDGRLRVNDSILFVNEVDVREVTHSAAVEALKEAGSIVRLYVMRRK
# MAGI1_1, Q96QZ7 = target: MAGI1_1, Q96QZ7
# Sequence of MAGI1_1, Q96QZ7 (Q96QZ7 1-106): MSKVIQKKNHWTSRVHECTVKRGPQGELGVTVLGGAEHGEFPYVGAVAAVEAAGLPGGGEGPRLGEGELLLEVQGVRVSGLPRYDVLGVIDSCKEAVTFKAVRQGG
Binder,"pKd (PCLO, Q9Y6V0)","pKd (MAST2, Q6P0Q8)","pKd (GRASP, Q7Z6J2)","pKd (FRMPD4, Q14CM0)","pKd (PTPN13_1, Q12923)","pKd (MPP7, Q5T2T1)","pKd (GRIP1_7, Q9Y3R0)","pKd (MAGI2_3, Q86UL8)","pKd (HTRA1, Q92743)","pKd (MAGI2_5, Q86UL8)","pKd (SYNJ2BP, P57105)","pKd (GRID2IP_1, A4D2P6)","pKd (Inadl_3, Q8NI35)","pKd (PDZRN3_1, Q9UPQ7)","pKd (ARHGAP21, Q5T5U3)","pKd (NHERF4_2, Q86UT5)","pKd (MAGI1_2, Q96QZ7)","pKd (Inadl_4, Q8NI35)","pKd (GRIP2_6, Q9C0E4)","pKd (GRIP2_3, Q9C0E4)",other results
"TLPRKRMSSI [GPRC6A, Q5T6X5]",below the threshold,4.82,below the threshold,below the threshold,below the threshold,below the threshold,below the threshold,below the threshold,below the threshold,below the threshold,below the threshold,below the threshold,below the threshold,below the threshold,below the threshold,below the threshold,below the threshold,below the threshold,below the threshold,below the threshold,"pKd (SCRIB_2, Q14160): below the threshold; pKd (GRIP1_5, Q9Y3R0): below the threshold; pKd (MPP6, Q9NZW5): below the threshold; pKd (LIN7A, O14910): below the threshold; pKd (FRMPD1, Q5SYB0): below the threshold; pKd (DLG4_1, P78352): below the threshold; pKd (MAGI1_1, Q96QZ7): below the threshold"
"HSGYRLNDYV [CLDN14, O95500]",below the threshold,3.89,3.74,3.58,below the threshold,below the threshold,below the threshold,below the threshold,4.34,below the threshold,3.63,below the threshold,below the threshold,below the threshold,3.95,below the threshold,below the threshold,below the threshold,below the threshold,below the threshold,"pKd (SCRIB_2, Q14160): below the threshold; pKd (GRIP1_5, Q9Y3R0): below the threshold; pKd (MPP6, Q9NZW5): 3.9; pKd (LIN7A, O14910): below the threshold; pKd (FRMPD1, Q5SYB0): below the threshold; pKd (DLG4_1, P78352): below the threshold; pKd (MAGI1_1, Q96QZ7): below the threshold"
"QSPANIYYKV [EFNB1, P52799]",below the threshold,4.56,below the threshold,3.8,below the threshold,3.61,below the threshold,below the threshold,4.37,below the threshold,below the threshold,below the threshold,below the threshold,below the threshold,below the threshold,below the threshold,below the threshold,below the threshold,4.4,below the threshold,"pKd (SCRIB_2, Q14160): below the threshold; pKd (GRIP1_5, Q9Y3R0): below the threshold; pKd (MPP6, Q9NZW5): below the threshold; pKd (LIN7A, O14910): below the threshold; pKd (FRMPD1, Q5SYB0): below the threshold; pKd (DLG4_1, P78352): below the threshold; pKd (MAGI1_1, Q96QZ7): below the threshold"

# Continued, in another order:
"pKd (PCLO, Q9Y6V0)","pKd (MAST2, Q6P0Q8)","pKd (GRASP, Q7Z6J2)","pKd (FRMPD4, Q14CM0)","pKd (PTPN13_1, Q12923)","pKd (MPP7, Q5T2T1)","pKd (GRIP1_7, Q9Y3R0)","pKd (MAGI2_3, Q86UL8)","pKd (HTRA1, Q92743)","pKd (MAGI2_5, Q86UL8)","pKd (SYNJ2BP, P57105)","pKd (GRID2IP_1, A4D2P6)","pKd (Inadl_3, Q8NI35)","pKd (PDZRN3_1, Q9UPQ7)","pKd (ARHGAP21, Q5T5U3)","pKd (NHERF4_2, Q86UT5)","pKd (MAGI1_2, Q96QZ7)","pKd (Inadl_4, Q8NI35)","pKd (GRIP2_6, Q9C0E4)","pKd (GRIP2_3, Q9C0E4)",Binder,other results
below the threshold,below the threshold,below the threshold,below the threshold,below the threshold,below the threshold,below the threshold,below the threshold,below the threshold,below the threshold,below the threshold,below the threshold,below the threshold,below the threshold,below the threshold,below the threshold,below the threshold,below the threshold,below the threshold,below the threshold,"TSSMRGMDAV [RSRC2, Q7L4I2]","pKd (SCRIB_2, Q14160): below the threshold; pKd (GRIP1_5, Q9Y3R0): below the threshold; pKd (MPP6, Q9NZW5): 3.79; pKd (LIN7A, O14910): below the threshold; pKd (FRMPD1, Q5SYB0): below the threshold; pKd (DLG4_1, P78352): 3.49; pKd (MAGI1_1, Q96QZ7): below the threshold"
below the threshold,5.1,3.5,below the threshold,below the threshold,below the threshold,below the threshold,below the threshold,4.62,4.36,4.55,below the threshold,4.81,3.78,4.08,below the threshold,4.24,below the threshold,below the threshold,below the threshold,"TACCHSETVV [TGFA, P01135]","pKd (SCRIB_2, Q14160): 4.1; pKd (GRIP1_5, Q9Y3R0): below the threshold; pKd (MPP6, Q9NZW5): below the threshold; pKd (LIN7A, O14910): 3.51; pKd (FRMPD1, Q5SYB0): below the threshold; pKd (DLG4_1, P78352): 4.75; pKd (MAGI1_1, Q96QZ7): below the threshold"

# Source: article PMC9482650, “Quantitative fragmentomics allow affinity mapping of interactomes” (Nature Communications, 2022)
